# Results published in the supplement of paper PMC10724198.
# ± gives the standard deviation of the averaged measurements.
# Test system: Saccharomyces cerevisiae
# Experiment: protein stability index of tFT-peptide fusion (C-terminal peptide) (PSI (0-1 scale)); higher = more stable (slower turnover)
# Conditions: genetic background: wild type; temperature: 30 C
# Experimental: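 Multiplexed protein stability (MPS) profiling in S. cerevisiae. Random 12-aa peptides (tFT-X12 library) are fused to the C-terminus of a sfGFP-mCherry tandem fluorescent timer, after mCherry and a GGGS linker. Cells are FACS-sorted into 8 mCherry/sfGFP bins and deep-sequenced. The protein stability index (PSI) is the read-weighted bin average, scaled from 0 (unstable) to 1 (stable). Only peptides with >10 reads are reported; cells were grown at 30 °C in SC-His with glucose.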
# 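Note: PSI is a weighted mean of sequencing reads over stability bins, variants kept only with over 10 reads, mCherry proximal and sfGFP distal, peptide attached via GGGS linker.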
row,Sequence,protein stability index
1,CRPAASCLPPER,0.6684 ± 0.0066
2,CRRLSICPILFL,0.607 ± 0.0062
3,CRRRGPWDRRSR,0.624 ± 0.014
4,CRRRNRLLLFRK,0.697 ± 0.037
5,CRSCFGGGVRFV,0.743 ± 0.076
6,CRTTDFQCTIGN,0.683 ± 0.0087
7,CRVALSRGVSLV,0.65 ± 0.0094
8,CRVVRPSLEPQV,0.697 ± 0.02
9,CRWLLWVDGWRV,0.5838 ± 0.0043
10,CSAESASPAERY,0.6541 ± 0.0013
11,CSHSLVLRFCPF,0.607 ± 0.059
12,CSLLCKCHLRRL,0.712 ± 0.1
13,CSLLFFFLLSFG,0.521 ± 0.021
14,CSLWVLKLFLGV,0.544 ± 0.012
15,CSPRPPPRSLHP,0.812 ± 0.024
16,CSPSPARPPPPR,0.684 ± 0.013
17,CSRGVVLFLGFL,0.586 ± 0.016
18,CSRPPFLLFVSP,0.702 ± 0.0076
19,CSRTSKKMSIGG,0.613 ± 0.019
20,CSSLLSSFSLRL,0.671 ± 0.038
21,CSSVTEFWWAVF,0.766 ± 0.1
22,CTMEDLGNCEGI,0.691 ± 0.0082
23,CVAFLAGIVSFL,0.525 ± 0.019
24,CVCGRFGGELGV,0.653 ± 0.1
25,CVCPLPLDSPVS,0.629 ± 0.081

row,Sequence,protein stability index
1,CVERVGSTPMDS,0.607 ± 0.053
2,CVLLSEVNRTMG,0.646 ± 0.041
3,CVLVVCRFTGDW,0.5083 ± 0.0038
4,CVQVMTWAMLEC,0.618 ± 0.022
5,CVSRLIPGDKHE,0.67 ± 0.032
6,CVVRADGVVGIL,0.649 ± 0.012
7,CVYGWVGRGWGA,0.707 ± 0.079
8,CWCGLGVWAFGV,0.715 ± 0.039
9,CWGAGGRTVING,0.68 ± 0.034
10,CWGEGGRTVING,0.639 ± 0.03
11,CWSSPSFSLLFP,0.779 ± 0.028
12,CWVNDGCPICGW,0.732 ± 0.072
13,CYCPPPGMPVPF,0.736 ± 0.095
14,DACPLAEGGGAA,0.717 ± 0.035
15,DAFWLRSRRSEG,0.712 ± 0.0039
16,DALGRSNGPPRV,0.673 ± 0.027
17,DAPSPPLTGVSR,0.645 ± 0.01
18,DASELLGRPVVL,0.748 ± 0.012
19,DAVWTRGGEGVW,0.718 ± 0.019
20,DCFISPRIFRPK,0.721 ± 0.023
21,DCKTCVVGCELF,0.697 ± 0.043
22,DCKVLIGQYQRE,0.7 ± 0.0098
23,DCPLPPRYRAPL,0.691 ± 0.043
24,DDGRDTLCGRGS,0.68 ± 0.042
25,DDRFNVGNLPQG,0.672 ± 0.046

row,Sequence,protein stability index
1,DDSSLLMLNCLE,0.71964 ± 0.00048
2,DEEVGWGRGVGW,0.72 ± 0.074
3,DETCVGSWNSCG,0.712 ± 0.044
4,DFFPVSGLANEH,0.636 ± 0.092
5,DFSPSPWQFTCW,0.692 ± 0.071
6,DFVKVVPNVVDL,0.659 ± 0.078
7,DFVLKQIARINL,0.648 ± 0.021
8,DGALWGTDRGAG,0.701 ± 0.064
9,DGCRLCRRFIFG,0.669 ± 0.013
10,DGFGVARGVSWG,0.752 ± 0.035
11,DGGGGGGGVAGD,0.708 ± 0.051
12,DGGRPFQKLYVA,0.663 ± 0.014
13,DGLWIYNINDGH,0.7314 ± 0.0019
14,DGTICAITYLTS,0.6653 ± 0.0017
15,DGWVAVGRALGG,0.704 ± 0.028
16,DHNTRGYQTKSR,0.667 ± 0.031
17,DIHSSQVPSMFA,0.68 ± 0.076
18,DIHVNLHKSRKM,0.626 ± 0.027
19,DIIGMPLLMKKK,0.693 ± 0.03
20,DIKATRTYNHKV,0.68 ± 0.029
21,DIKKRQNIKDRK,0.686 ± 0.051
22,DKKKNKDQKEKI,0.731 ± 0.029
23,DKKKRRERKDRT,0.6746 ± 0.0061
24,DKLSSRIPCSPS,0.679 ± 0.0077
25,DKTPRSHKKTAE,0.738 ± 0.022

row,Sequence,protein stability index
1,DLAPLSFVHLLL,0.596 ± 0.037
2,DLFPTLFFIRSR,0.689 ± 0.073
3,DLGLSYCGYAML,0.683 ± 0.064
4,DLGVCCLLGDFG,0.577 ± 0.0072
5,DLPRCPPSPPPS,0.713 ± 0.046
6,DLPRLLLSPSLP,0.67 ± 0.058
7,DLRPSLPHPTQP,0.673 ± 0.037
8,DLRSSDPVAGSL,0.623 ± 0.011
9,DLTPWLAPFRER,0.797 ± 0.097
10,DLWDDVAYVIVA,0.619 ± 0.039
11,DMYLPSSSHPPP,0.712 ± 0.021
12,DMYSVTRDHVMI,0.655 ± 0.04
13,DNARCKSPRSLN,0.621 ± 0.092
14,DNEMLQICRSRW,0.774 ± 0.029
15,DNGVLVFLPVLD,0.6791 ± 0.0066
16,DNMKLILNGYNL,0.658 ± 0.03
17,DNSIWPSALCAP,0.703 ± 0.047
18,DNWHRSFSTYPV,0.647 ± 0.099
19,DPPFPSGPPLPL,0.6742 ± 0.0061
20,DPPPHPPPASPT,0.7 ± 0.1
21,DPVLPSVRVSLG,0.715 ± 0.068
22,DQDVPLWGLVSM,0.682 ± 0.054
23,DQESTRLRWGTS,0.66 ± 0.041
24,DQNNSQIRHEQP,0.575 ± 0.03
25,DQRCRLQGRYQR,0.733 ± 0.12

row,Sequence,protein stability index
1,DQRLKKKTVQMK,0.778 ± 0.076
2,DQVWGGSEDNTV,0.76 ± 0.052
3,DRCLFRFNLWGG,0.7203 ± 0.0063
4,DRFPGLILVSFP,0.73 ± 0.05
5,DRGKGEKGKKAD,0.6797 ± 0.0036
6,DRHVPPASYLAD,0.6343 ± 0.0057
7,DRLGDCRKPRPF,0.657 ± 0.099
8,DRNGKIGTFKKV,0.795 ± 0.12
9,DRNVMNGFTRPG,0.659 ± 0.034
10,DRPPPPPRSSPL,0.753 ± 0.046
11,DRQGMIGLKYVK,0.776 ± 0.11
12,DRRRGVGESSFG,0.703 ± 0.025
13,DRWIGLWGGLWV,0.63 ± 0.018
14,DRYGVYPIYGKF,0.6855 ± 0.0054
15,DSASFAFCCFCD,0.639 ± 0.023
16,DSESSLPSLPHT,0.682 ± 0.015
17,DSGRRVTLLVFV,0.594 ± 0.041
18,DSHRRPGSPPPL,0.688 ± 0.11
19,DSILYKKYKQLG,0.559 ± 0.024
20,DSMLTYIRSTKD,0.633 ± 0.007
21,DSPPMTALITDF,0.697 ± 0.019
22,DSPRTFWGPTQK,0.699 ± 0.055
23,DSQAEPGLSARL,0.796 ± 0.059
24,DSSDIELSTRTL,0.651 ± 0.027
25,DSVQALDGRAGI,0.683 ± 0.046

row,Sequence,protein stability index
1,DTDLWFASVFSS,0.793 ± 0.022
2,DTNRALMRKSHS,0.673 ± 0.0088
3,DVDWVLTLGCLG,0.647 ± 0.034
4,DVELTGCCLSRT,0.696 ± 0.026
5,DVGGDGDCVVSS,0.661 ± 0.0024
6,DVGRDVCEFRDR,0.677 ± 0.045
7,DVHPPPPAPPPP,0.747 ± 0.12
8,DVKNMVWKTIEL,0.6746 ± 0.0065
9,DVLSLFCKFFGV,0.661 ± 0.075
10,DVLVHETFLCRL,0.774 ± 0.016
11,DVVPYLGYYFFC,0.578 ± 0.01
12,DVYDLGLPINMS,0.698 ± 0.045
13,DWSHLLTSHAII,0.703 ± 0.041
14,EAGGAQGPTGEL,0.634 ± 0.02
15,EAQGVEMMGWAV,0.696 ± 0.025
16,EARPQAMPGRHP,0.689 ± 0.024
17,ECNESSACRNHY,0.65 ± 0.032
18,EDKETETSVNQK,0.6758 ± 0.0059
19,EDKVHQSSACHQ,0.707 ± 0.03
20,EDNRTSEMFVFY,0.753 ± 0.14
21,EDSRATNERGRT,0.704 ± 0.049
22,EEFTSRAFRISW,0.744 ± 0.13
23,EERAGTRGGRGR,0.743 ± 0.13
24,EFERWCGLGRFG,0.744 ± 0.096
25,EFFVLVHLVDPK,0.638 ± 0.041

row,Sequence,protein stability index
1,EFVFLLSNTFNS,0.749 ± 0.03
2,EGAGGVVVEGLG,0.68 ± 0.028
3,EGAVGMSGSLGV,0.668 ± 0.063
4,EGCGLQRGMGVL,0.681 ± 0.0096
5,EGDACCGVDGKR,0.663 ± 0.13
6,EGGETDRSLMVV,0.66 ± 0.014
7,EGGGWGVGSEVG,0.694 ± 0.035
8,EGGMLNAVRPRS,0.663 ± 0.048
9,EGGRFTALSSTS,0.689 ± 0.039
10,EGGRGYGRGRYG,0.685 ± 0.051
11,EGGVERIHKPSS,0.654 ± 0.061
12,EGKRGKTGVRRI,0.743 ± 0.055
13,EGLRLWGRCCWG,0.74 ± 0.048
14,EGPLVRGSGVDV,0.637 ± 0.043
15,EGQVGVGWGWVR,0.786 ± 0.12
16,EGRRCQGGVWRE,0.6818 ± 0.0061
17,EGTIDSGRHSLK,0.752 ± 0.15
18,EGTKEKGEKRRR,0.666 ± 0.065
19,EGTTRDGERCRT,0.696 ± 0.0056
20,EGVSGVSLFRVL,0.661 ± 0.051
21,EHCGRGMGSGAA,0.673 ± 0.012
22,EHFGFYFIFNLY,0.58 ± 0.034
23,EIEYVEPSIPET,0.702 ± 0.046
24,EIGWEGLAGRGG,0.754 ± 0.029
25,EIKKKNPSTTRR,0.663 ± 0.01

row,Sequence,protein stability index
1,EISKVRGAVDRK,0.689 ± 0.033
2,EITLFELWPPGS,0.78 ± 0.03
3,EKCCVNSASSFG,0.646 ± 0.0098
4,EKKKNTQGIKKK,0.685 ± 0.011
5,EKKKRRASREDS,0.6744 ± 0.0039
6,EKKKSCIMILRK,0.701 ± 0.039
7,EKKKSKGRRKLM,0.705 ± 0.081
8,EKKRKKIYGNLK,0.683 ± 0.13
9,EKRDKREVRPGK,0.6626 ± 0.0055
10,EKRKEKKKRGKE,0.797 ± 0.16
11,EKRQNLKPMRTV,0.686 ± 0.026
12,EKSKNQKPHAAR,0.633 ± 0.0088
13,EKTKEEKKLRTK,0.647 ± 0.046
14,EKTKEKKAKKYG,0.694 ± 0.027
15,EKYASINSSKPP,0.671 ± 0.068
16,EKYSSHPMDTRQ,0.653 ± 0.013
17,ELCFFISLVPDF,0.642 ± 0.007
18,ELEIKGRRQIKT,0.666 ± 0.055
19,ELLKQRTRKRQK,0.693 ± 0.021
20,ELNENKKKKEHL,0.714 ± 0.12
21,ELRADRTYTGIV,0.752 ± 0.054
